Experimental findings from publication PMC9440244, “Structures and implications of the nuclease domain of human parvovirus B19 NS1 protein” are described below.

The data set deals with NS1_Nuc WT (nuclease domain of NS1) (human parvovirus B19 (variant …, UniProt A0A097C0M3 2-176)). The experiment in a line: EMSA; 1 mM EDTA. The following applies: protein: recombinant, tags: His-SUMO removed by ULP1. On the technique in general: Mobility shift assays separate free from complexed probe on a gel.

B1: 67-ori-top (ssDNA)
DNA: AAAATTTAAAAGAAGACACCAAATCAGATGCCGCCGGTCGCCGCCGGTAGGCGGGACTTCCGGTACA
As for B1, the dissociation constant Kd (usually a measure of binding affinity in units of concentration) (label: 5'-FAM, single strand) came out at 12.3 µM.

B2: 67-ori-top/40-ori-bot (mixed)
DNA 1: B1 DNA
DNA 2: TGTACCGGAAGTCCCGCCTACCGGCGGCGACCGGCGGCAT
Consider B2, for which, for the setting “label: 5'-FAM on 67-ori-top, partial duplex over NSBE1-NSBE4, top strand single-stranded elsewhere”, the Kd was about 1 µM.
